Source: the supplement of paper PMC10567573

B1: KCNAB2 (parent)
chain: SSIIHEIDSILGNKPYSKKDYRS

Variants of: B1
Test: protein stability index of a GFP-peptide fusion (GPS, HEK-293T) (PSI 1-6); higher = more stable
Details: c terminus: native
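Further: lentivirally expressed fusions sorted by FACS into six bins by GFP to DsRed ratio, PSI derived from sequencing read proportions per bin multiplied by bin number.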

Variant | protein stability index
SSIVHEIDSILGNKPYSKKDYRS | 2.46
SSIPHEIDSILGNKPYSKKDYRS | 4.63
SSICHEIDSILGNKPYSKKDYRS | 3.6
SSIMHEIDSILGNKPYSKKDYRS | 2.59
SSITHEIDSILGNKPYSKKDYRS | 3.95
SSIQHEIDSILGNKPYSKKDYRS | 4.26
SSIYHEIDSILGNKPYSKKDYRS | 2.75
SSIGHEIDSILGNKPYSKKDYRS | 2.69
SSIHHEIDSILGNKPYSKKDYRS | 2.86
SSIAHEIDSILGNKPYSKKDYRS | 3.44
SSIDHEIDSILGNKPYSKKDYRS | 4.28
SSISHEIDSILGNKPYSKKDYRS | 3.25
MSIIHEIDSILGNKPYSKKDYRS | 1.8
DSIIHEIDSILGNKPYSKKDYRS | 3.67
CSIIHEIDSILGNKPYSKKDYRS | 2.47
KSIIHEIDSILGNKPYSKKDYRS | 3.55
NSIIHEIDSILGNKPYSKKDYRS | 3.97
PSIIHEIDSILGNKPYSKKDYRS | 3.28
QSIIHEIDSILGNKPYSKKDYRS | 2.94
GSIIHEIDSILGNKPYSKKDYRS | 3.04
YSIIHEIDSILGNKPYSKKDYRS | 1.59
VSIIHEIDSILGNKPYSKKDYRS | 2.34
RSIIHEIDSILGNKPYSKKDYRS | 2.78
HSIIHEIDSILGNKPYSKKDYRS | 2.46
TSIIHEIDSILGNKPYSKKDYRS | 2.6

Variant | protein stability index
ISIIHEIDSILGNKPYSKKDYRS | 2.67
FSIIHEIDSILGNKPYSKKDYRS | 2.06
ASIIHEIDSILGNKPYSKKDYRS | 2.43
LSIIHEIDSILGNKPYSKKDYRS | 2.13
ESIIHEIDSILGNKPYSKKDYRS | 2.82
SSIIHEINSILGNKPYSKKDYRS | 2.69
SSIIHEIASILGNKPYSKKDYRS | 2.06
SSIIHEIPSILGNKPYSKKDYRS | 2.77
SSIIHEIQSILGNKPYSKKDYRS | 3.06
SSIIHEIVSILGNKPYSKKDYRS | 2.57
SSIIHEISSILGNKPYSKKDYRS | 2.45
SSIIHEIKSILGNKPYSKKDYRS | 2.07
SSIIHEIGSILGNKPYSKKDYRS | 2.41
SSIIHEITSILGNKPYSKKDYRS | 2.25
SSIIHEIRSILGNKPYSKKDYRS | 2.84
SSIIHEIYSILGNKPYSKKDYRS | 2.14
SSIIHEICSILGNKPYSKKDYRS | 1.59
SSIIHEIHSILGNKPYSKKDYRS | 2.06
SSIIHEIESILGNKPYSKKDYRS | 2.16
SSIIHKIDSILGNKPYSKKDYRS | 3.21
SSIIHYIDSILGNKPYSKKDYRS | 1.69
SSIIHRIDSILGNKPYSKKDYRS | 2.26
SSIIHLIDSILGNKPYSKKDYRS | 3.25
SSIIHTIDSILGNKPYSKKDYRS | 2.23
SSIIHQIDSILGNKPYSKKDYRS | 2.62

Variant | protein stability index
SSIIHFIDSILGNKPYSKKDYRS | 3.61
SSIIHSIDSILGNKPYSKKDYRS | 2.66
SSIIHNIDSILGNKPYSKKDYRS | 3.65
SSIIHVIDSILGNKPYSKKDYRS | 3.15
SSIIHHIDSILGNKPYSKKDYRS | 2.31
SSIIHAIDSILGNKPYSKKDYRS | 1.72
SSIIHGIDSILGNKPYSKKDYRS | 2.82
SSIIHIIDSILGNKPYSKKDYRS | 2.01
SSIIHWIDSILGNKPYSKKDYRS | 3.44
SSIIHDIDSILGNKPYSKKDYRS | 2.97
SSIIHCIDSILGNKPYSKKDYRS | 1.94
SSIIHPIDSILGNKPYSKKDYRS | 2.9
SSIIHEIDHILGNKPYSKKDYRS | 2.8
SSIIHEIDYILGNKPYSKKDYRS | 2.24
SSIIHEIDVILGNKPYSKKDYRS | 2.53
SSIIHEIDLILGNKPYSKKDYRS | 2.38
SSIIHEIDRILGNKPYSKKDYRS | 2.58
SSIIHEIDPILGNKPYSKKDYRS | 3.81
SSIIHEIDKILGNKPYSKKDYRS | 3.54
SSIIHEIDEILGNKPYSKKDYRS | 3.66
SSIIHEIDAILGNKPYSKKDYRS | 2.48
SSIIHEIDWILGNKPYSKKDYRS | 2.9
SSIIHEIDTILGNKPYSKKDYRS | 3.41
SSIIHEIDNILGNKPYSKKDYRS | 2.94
SSIIHEIDQILGNKPYSKKDYRS | 3.19

Variant | protein stability index
SSIIHEIDDILGNKPYSKKDYRS | 2.89
SSIIHEIDMILGNKPYSKKDYRS | 2.2
SSIIHEIDIILGNKPYSKKDYRS | 2.08
SSIIHEIDFILGNKPYSKKDYRS | 1.75
SSIIHEIDGILGNKPYSKKDYRS | 3.66
SSIIHEEDSILGNKPYSKKDYRS | 4.51
SSIIHEKDSILGNKPYSKKDYRS | 3.45
SSIIHEHDSILGNKPYSKKDYRS | 3.97
SSIIHEYDSILGNKPYSKKDYRS | 4.53
SSIIHEADSILGNKPYSKKDYRS | 4.65
SSIIHESDSILGNKPYSKKDYRS | 4.38
SSIIHELDSILGNKPYSKKDYRS | 2.86
SSIIHEPDSILGNKPYSKKDYRS | 4.47
SSIIHENDSILGNKPYSKKDYRS | 4.63
SSIIHERDSILGNKPYSKKDYRS | 3.86
SSIIHEMDSILGNKPYSKKDYRS | 2.75
SSIIHETDSILGNKPYSKKDYRS | 4.7
SSIIHEGDSILGNKPYSKKDYRS | 4.45
SSIIHECDSILGNKPYSKKDYRS | 4.15
SSIIHEQDSILGNKPYSKKDYRS | 4.42
SSIIHEFDSILGNKPYSKKDYRS | 2.71
SSIIHEDDSILGNKPYSKKDYRS | 4.4
